Measurements as given in US6248554, “DNA sequence coding for a BMP receptor” (The Procter & Gamble Company, dated 2001).

T1: digit-removed BMP-2 (Homo sapiens (Human), UniProt P12643, 125I label by the chloramine-T method)
T1 sequence: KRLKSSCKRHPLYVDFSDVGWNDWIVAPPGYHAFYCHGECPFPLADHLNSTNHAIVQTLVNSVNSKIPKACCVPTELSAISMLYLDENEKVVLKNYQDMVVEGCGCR

T2: bone morphogenetic protein 2 (Homo sapiens (Human), UniProt P12643)
T2 sequence: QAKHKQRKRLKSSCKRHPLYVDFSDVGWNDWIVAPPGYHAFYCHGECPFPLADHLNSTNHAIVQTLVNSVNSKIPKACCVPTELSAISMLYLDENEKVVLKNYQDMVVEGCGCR

B1: BMP receptor kinase protein-1 (receptor)
chain: QNLDSMLHGTGMKSDLDQKKPENGVTLAPEDTLPFLKCYCSGHCPDDAINNTCITNGHCFAIIEEDDQGETTLTSGCMKYEGSDFQCKDSPKAQLRRTIECCRTNLCNQYLQPTLPPVVIGPFFDGSIRWLVVLISMAVCIVAMIIFSSCFCYKHYCKSISSRGRYNRDLEQDEAFIPVGESLKDLIDQSQSSGSGSGLPLLVQRTIAKQIQMVRQVGKGRYGEVWMGKWRGEKVAVKVFFTTEEASWFRETEIYQTVLMRHENILGFIAADIKGTGSWTQLYLITDYHENGSLYDFLKCATLDTRALLKLAYSAACGLCHLHTEIYGTQGKPAIAHRDLKSKNILIKKNGSCCIADLGLAVKFNSDTNEVDIPLNTRVGTKRYMAPEVLDESLNKNHFQPYIMADIYSFGLIIWEMARRCITGGIVEEYQLPYYNMVPSDPSYEDMREVVCVKRLRPIVSNRWNSDECLRAVLKLMSECWAHNPASRLTALRIKKTLAKMVESQDVKI
B2: bone morphogenetic protein 4 (ligand)
chain: SPKHHSQRARKKNKNCRRHSLYVDFSDVGWNDWIVAPPGYQAFYCHGDCPFPLADHLNSTNHAIVQTLVNSVNSSIPKACCVPTELSAISMLYLDEYDKVVLKNYQEMVVEGCGCR
modifications: 125I label by the chloramine-T method where used as tracer

Columns and labels:
[1] = target: T1, digit-removed BMP-2; assay: DSS crosslinking on transfected COS-7 cells, SDS-PAGE
From the text: (§1) In this method, the bifunctional crosslinking reagent disuccinimidyl suberate (DSS) (Pierce Chemical, Rockford, Ill.) is used to covalently crosslink bound radiolabeled ligand to its receptor by reaction with free amino groups on lysine residues in the two proteins. Following the crosslinking, cellular proteins are separated by gel electrophoresis, and radioactive bands visualized. The labeled bands represent the receptor selectively "tagged" with the radiolabeled ligand. In this procedure, cells are transfected with pJT4-J159F as described in example 7, then seeded into 12 well plates at 670,000 cells/well. Media is changed after 24 hr. At 48 hr after electroporation, the cells are washed, equilibrated, and incubated with [^125I]-BMP-4 or [^125I]-DRBMP-2 and competing unlabeled ligands as described in this example for whole cell binding studies.
(§2) After completion of the 4 hour incubation with ligand, the cells are washed three times at 4° C. with 2 ml of binding buffer having the same composition as described above, except that no BSA is added. To each well is then added 1 ml of fresh BSA-free binding buffer, followed by freshly prepared DSS to a final concentration of 135 μM. After swirling gently to mix the DSS, the plates are incubated for exactly 15 minutes at 4° C. with gentle shaking. […]

[2] = target: T2, bone morphogenetic protein 2; assay: competition: 10 nM unlabelled BMP-2 greatly reduces the band of [125I]-BMP-4 or [125I]-DR-BMP-2 crosslinked to BRK-1
From the text: as §1, §2

[3] = target: B2; assay: saturation binding of [125I]-BMP-4 (10-1000 pM) on COS-7 cells transfected with BRK-1, nonspecific binding with 10 nM unlabelled BMP-4, LIGAND software
Protocol: For whole cell binding experiments, COS-7 cells are transfected with pJT4-J159F as described in example 7. After electroporation, cells are seeded in 12 well plates at 670,000 cells/ell. Media is changed after 24 hr, and binding experiments are carried out at 48 hr. At that time, cells are washed once with binding buffer (50 mM Hepes buffer, pH 7.4, 128 mM NaCl, 5 mM KCl, 5 mM MgSO_4, 1.2 mM CaCl_2, 2 mg/ml BSA), then equilibrated in the same buffer at 4° C. for 30 min with gentle shaking. The buffer is then aspirated, and to each well is added 500 µl of binding buffer (4° C.), containing [^125I]-BMP-4 tracer (100 pM), as well as varying concentrations of unlabeled BMP-2, BMP-4, or other unlabeled ligand, depending on the assay. For determination of nonspecific binding, BMP-2 is added to the binding buffer at a final concentration of 10 nM. […] The solubilized cells are then transferred to fresh tubes and counted in a Packard Model 5005 "COBRA" Gamma Counter (Packard Instrument Co., Downers Grove, Ill.).
In order to obtain a more quanitative characterization of binding to BRK-1, a saturation binding analysis is performed on COS-7 cells transfected with the cDNA for BRK-1, using the construct pJT4-J159F. Binding of [^125I]-BMP-4 is examined over a concentration range of 10–1000 pM, with nonspecific binding determined with 10 nM unlabeled BMP-4.

[4] = target: B1; assay: whole cell binding of [125I]-BMP-4 (100 pM), nonspecific binding with 10 nM BMP-2, COS-7 cells transfected with pJT4-J159F
Protocol: The detached cells are pelleted in a tabletop centrifuge, then resuspended in fresh media at a concentration of 6.25 ×10^6 cells/ml. The cell suspension (5 ×10^6 cells, 0.8 ml) is transferred to the cuvette from a BioRad "GENE PULSER" electroporation system (BioRad, Hercules, Calif.). The purified DNA plasmid (10 μg) is added to the cuvette, and the cells subjected to electoporation at 4.0 kV/cm, with a capacitance of 25 μFd. Cells are then plated and allowed to recover. Fresh media is supplied after 24 hr. At 48 hr, cells are ready to be tested for binding of BMP-4.
For whole cell binding experiments, COS-7 cells are transfected with pJT4-J159F as described in example 7. After electroporation, cells are seeded in 12 well plates at 670,000 cells/ell. Media is changed after 24 hr, and binding experiments are carried out at 48 hr. At that time, cells are washed once with binding buffer (50 mM Hepes buffer, pH 7.4, 128 mM NaCl, 5 mM KCl, 5 mM MgSO_4, 1.2 mM CaCl_2, 2 mg/ml BSA), then equilibrated in the same buffer at 4° C. for 30 min with gentle shaking. […] The solubilized cells are then transferred to fresh tubes and counted in a Packard Model 5005 "COBRA" Gamma Counter (Packard Instrument Co., Downers Grove, Ill.).

Row | binding result [1] | binding result [2] | Kd [3] [nM] | specific binding relative to mock-transfected COS-7 cells [4] [times] | Binder
1 | binds | binds | 0.5 |  | B1
2 |  |  |  | 3 | B2
